Experimental data from patent US20150147318A1 (ZOETIS SERVICES, published 2015).

How the values were obtained:
[1] = molecular target: T1, recombinant canine Nerve Growth Factor (Canis lupus familiaris NGF) (canine (Canis lupus familiaris), UniProt Q29074 110-229 (pig entry), limits assumed); experiment: SPR trkA inhibition: mAb pre-incubated with NGF, binding of NGF to trkA measured in RU
T1 construct: also called canine NGF; Dog NGF
T1 chain: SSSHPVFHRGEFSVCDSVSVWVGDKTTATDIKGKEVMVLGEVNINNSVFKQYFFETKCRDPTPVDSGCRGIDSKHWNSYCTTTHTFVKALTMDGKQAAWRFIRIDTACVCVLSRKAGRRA

[2] = molecular target: T1, recombinant canine Nerve Growth Factor …; experiment: cell-based or functional assay
[3] = molecular target: T1, recombinant canine Nerve Growth Factor …; experiment: SPR, Biacore T100, dog NGF; run 11/24
[4] = molecular target: T1, recombinant canine Nerve Growth Factor …; experiment: SPR, Biacore T100, dog NGF; run 11/29
[5] = molecular target: T1, recombinant canine Nerve Growth Factor …; experiment: SPR, Biacore T100, dog NGF; run 11/29; comment 'Agg?'
[6] = molecular target: T1, recombinant canine Nerve Growth Factor …; experiment: SPR, Biacore T100, dog NGF; run 11/24; comment 'Agg?'
[7] = molecular target: T1, recombinant canine Nerve Growth Factor …; experiment: SPR, Biacore T100, dog NGF; run 11/22
[8] = molecular target: T1, recombinant canine Nerve Growth Factor …; experiment: method not stated; recombinant canine NGF

B1: SSM66 (CAN-SSM66-VH, CAN-SSME3M-VL) (antibody, V domains shown)
VH: EVQLVESGGDLARPGGSLKLSCVVSGFSLIEYDINWVRQAPGKGLQWVTMIWGTGTTDYNSALKSRFTVSRDNAMNTVYLQMNSLRVEDTAVYYCARGGYWYATSYYFDYWGQGTLVTVSS
VL: DIVMTQTPLSLSVSPGETASISCRASQSISNNLNWFRQKPGQSPQRLIYYISSFHSGVPDRFSGSGSGTDFTLRISRVEADDTGVYYCQQSHTLPYTFGAGTKLEIK
[1]
  Ki: 4.5 nM
[2]
  EC50, pERK inhibition, PC-12 (Rat Neuronal), pre-incubation 1 hour, 2/23/11 (SSM66): 1.45 nM
  EC50, pERK inhibition, PC-12 (Rat Neuronal), pre-incubation 1 hour, 3/26/11 (SSM66): 0.71 nM
  EC50, pERK inhibition, huTrkA (CHO), pre-incubation 1 hour, 3/26/11 (SSM66): 0.76 nM
  EC50, pERK inhibition, huTrkA (CHO), pre-incubation 1 hour, 3/31/11 (SSM66): 0.94 nM
  EC50, pERK inhibition, huTrkA (CHO), pre-incubation 6 hour, 3/31/11 (SSM66): 0.69 nM
  Fold Potency Difference versus RN911, pERK inhibition, PC-12 (Rat Neuronal), pre-incubation 1 hour, 2/23/11 (SSM66): 2.2 fold
  Fold Potency Difference versus RN911, pERK inhibition, PC-12 (Rat Neuronal), pre-incubation 1 hour, 3/26/11 (SSM66): 1.5 fold
  Fold Potency Difference versus RN911, pERK inhibition, huTrkA (CHO), pre-incubation 1 hour, 3/26/11 (SSM66): 1.6 fold
  Fold Potency Difference versus RN911, pERK inhibition, huTrkA (CHO), pre-incubation 1 hour, 3/31/11 (SSM66): 1.5 fold
  Fold Potency Difference versus RN911, pERK inhibition, huTrkA (CHO), pre-incubation 6 hour, 3/31/11 (SSM66): 1.2 fold

B2: LTM109 (HC Y101W, G103A; LC D28S, H32N, K92H) (antibody, V domains shown)
VH: EVQLVESGGDLARPGGSLKLSCVVSGFSLIGYDINWVRQAPGKGLQWVTMIWGDGTTDYNSALKSRFTVSRDNAMNTVYLQMNSLRVEDTAVYYCARGGYWYATSYYFDYWGQGTLVTVSS
VL: DIVMTQTPLSLSVSPGETASISCRASQSISNNLNWFRQKPGQSPQRLIYYISRFHSGVPDRFSGSGSGTDFTLRISRVEADDTGVYYCQQSHTLPYTFGAGTKLEIK
notes: Full IgG; constant regions are not restated; also called CAN-LTM109-VH / CAN-LTM109-VL
[3]
  Kd: 0.515 nM
[4]
  Kd: 0.748 nM

B3: LTM construct 133 (HC G103A, LC K92H) (antibody, V domains shown)
VH: EVQLVESGGDLARPGGSLKLSCVVSGFSLIGYDINWVRQAPGKGLQWVTMIWGDGTTDYNSALKSRFTVSRDNAMNTVYLQMNSLRVEDTAVYYCARGGYYYATSYYFDYWGQGTLVTVSS
VL: DIVMTQTPLSLSVSPGETASISCRASQDISNHLNWFRQKPGQSPQRLIYYISRFHSGVPDRFSGSGSGTDFTLRISRVEADDTGVYYCQQSHTLPYTFGAGTKLEIK
notes: Point mutant of canE3M65 as full IgG
[5]
  Kd: 0.011 nM
[6]
  Kd: 1.33 pM

B4: LTM construct 43 (HC Y100W, LC K92H) (antibody, V domains shown)
VH: EVQLVESGGDLARPGGSLKLSCVVSGFSLIGYDINWVRQAPGKGLQWVTMIWGDGTTDYNSALKSRFTVSRDNAMNTVYLQMNSLRVEDTAVYYCARGGWYYGTSYYFDYWGQGTLVTVSS
VL: DIVMTQTPLSLSVSPGETASISCRASQDISNHLNWFRQKPGQSPQRLIYYISRFHSGVPDRFSGSGSGTDFTLRISRVEADDTGVYYCQQSHTLPYTFGAGTKLEIK
notes: Point mutant of canE3M65 as full IgG; Constant regions are not restated
[3]
  Kd: 5.67 nM

B5: LTM construct 35 (HC Y100W, LC D28S, H32N, K92H) (antibody, V domains shown)
VH: EVQLVESGGDLARPGGSLKLSCVVSGFSLIGYDINWVRQAPGKGLQWVTMIWGDGTTDYNSALKSRFTVSRDNAMNTVYLQMNSLRVEDTAVYYCARGGWYYGTSYYFDYWGQGTLVTVSS
VL: DIVMTQTPLSLSVSPGETASISCRASQSISNNLNWFRQKPGQSPQRLIYYISRFHSGVPDRFSGSGSGTDFTLRISRVEADDTGVYYCQQSHTLPYTFGAGTKLEIK
notes: as for B4
[7]
  Kd: 0.237 nM
[4]
  Kd: 0.81 nM

B6: murine anti-NGF monoclonal antibody RN911 (antibody, V domains shown)
VH: QVQLKESGPGLVAPSQSLSITCTVSGFSLIGYDINWVRQPPGKGLEWLGMIWGDGTTDYNSALKSRLSISKDNSKSQVFLKMNSLRTDDTATYSCARGGYYYGTSYYFDYWGQGTTLTVSS
VL: DIQMTQTTSSLSASLGDRVTISCRASQDISNHLNWYQQKPDGTVKLLIYYISRFHSGVPSRFSGSGSGTDYSLTISNLEQEDIATYFCQQSKTLPYTFGGGTKLEIKR
notes: Mouse mAb; also called MU-RN911
[1]
  Ki: 4.2 nM
[8]
  Kd: 0.755 nM
[2]
  EC50, pERK inhibition, PC-12 (Rat Neuronal), pre-incubation 1 hour, 2/23/11 (RN911): 0.67 nM
  EC50, pERK inhibition, PC-12 (Rat Neuronal), pre-incubation 1 hour, 3/26/11 (RN911): 0.46 nM
  EC50, pERK inhibition, huTrkA (CHO), pre-incubation 1 hour, 3/26/11 (RN911): 0.47 nM
  EC50, pERK inhibition, huTrkA (CHO), pre-incubation 1 hour, 3/31/11 (RN911): 0.62 nM
  EC50, pERK inhibition, huTrkA (CHO), pre-incubation 6 hour, 3/31/11 (RN911): 0.57 nM
